This note sets out measurements from patent US20220401524A1.

In assay [1] the target is complement C1q (human) (UniProt P02745). Description: cell-based or functional assay.
Assay [2] shares this target. Put plainly: flow cytometry, vWF (10 µg/ml) bound to C1q immobilized on cholesterol crystals, mean of n=5.
For assay [3] the target is unchanged. Description: flow cytometry, vWF on cholesterol crystals with C1q against crystals without C1q. (In general: In flow cytometry, cells or beads pass a laser one at a time.)

UniProt P02745, sequence (P02745 23-245, chain 1 of 3): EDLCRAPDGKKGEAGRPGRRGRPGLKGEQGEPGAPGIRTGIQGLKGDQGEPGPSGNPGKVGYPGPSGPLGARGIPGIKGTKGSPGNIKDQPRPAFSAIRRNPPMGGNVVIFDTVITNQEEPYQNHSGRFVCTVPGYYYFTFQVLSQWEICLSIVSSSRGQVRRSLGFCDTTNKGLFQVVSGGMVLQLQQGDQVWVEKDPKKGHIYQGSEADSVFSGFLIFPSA
UniProt P02745, sequence (chain, as listed by the source, chain 2 of 3): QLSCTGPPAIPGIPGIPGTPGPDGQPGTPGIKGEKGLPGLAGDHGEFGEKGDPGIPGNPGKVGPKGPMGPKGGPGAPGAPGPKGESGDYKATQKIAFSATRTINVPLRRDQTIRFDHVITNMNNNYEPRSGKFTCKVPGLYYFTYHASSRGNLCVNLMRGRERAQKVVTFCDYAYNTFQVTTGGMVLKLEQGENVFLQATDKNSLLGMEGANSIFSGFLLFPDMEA
UniProt P02745, sequence (chain, as listed by the source, chain 3 of 3): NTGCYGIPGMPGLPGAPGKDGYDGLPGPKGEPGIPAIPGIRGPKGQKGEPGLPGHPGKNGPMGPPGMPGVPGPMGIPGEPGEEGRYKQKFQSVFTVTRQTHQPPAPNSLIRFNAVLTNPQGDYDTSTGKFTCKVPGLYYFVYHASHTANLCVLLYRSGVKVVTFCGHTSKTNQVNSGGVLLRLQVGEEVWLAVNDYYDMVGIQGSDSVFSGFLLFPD

In assay [1], “recombinant von Willebrand factor (from UniProt P04275 764-2813) (ligand)” showed a caspase-1 activity of HMDMs (% CD11c+ cells in FLICA+ gate) of 9.37%; an early phagocytosis of pHrodo-dyed CC complexes by HMDMs (30 min, % CD11c+ cells in pHrodo Red Ester+ gate) of 54.5%; a late phagocytosis of CC complexes by HMDMs (18 hr, % CD11c+ cells in SSC high gate) of 13.7%. The substance further had a gMFI in assay [2] of 134000 gMFI. In assay [3], this substance showed a fold gMFI against CC without C1q of 67 fold.
